One data set has as its target T1, H3 15-31 peptide, K27me2.
T1 chain: APRKQLATKAARKSAPA

Data set [1] has as its target T2, H3 15-31 peptide, K18ac+K23ac.
T2 chain: APRKQLATKAARKSAPA

For data set [2], the target named is rH3 pan-acetylated with acetic anhydride.
Data set [3] concerns the target T3, H3 15-31 peptide, K18 acetyl.
T3 chain: APRKQLATKAARKSAPA

The target in data set [4] is T4, H3 15-31 peptide, K23 acetyl.
T4 chain: APRKQLATKAARKSAPA

Data set [5] deals with C-terminally 6xHIS tagged, full-length recombinant histone H3.

B1: recombinant mouse Cathepsin L (R&D Systems, # 1515-CY-010) (protein)
chain: TPKFDQTFSAEWHQWKSTHRRLYGTNEEEWRRAIWEKNMRMIQLHNGEYSNGQHGFSMEMNAFGDMTNEEFRQVVNGYRHQKHKKGRLFQEPLMLKIPKSVDWREKGCVTPVKNQGQCGSCWAFSASGCLEGQMFLKTGKLISLSEQNLVDCSHAQGNQGCNGGLMDFAFQYIKENGGLDSEESYPYEAKDGSCKYRAEFAVANDTGFVDIPQQEKALMKAVATVGPISVAMDASHPSLQFYSSGIYYEPNCSSKNLDHGVLLVGYGYEGTDSNKNKYWLVKNSWGSEWGMEGYIKIAKDRDNHCGLATAASYPVVN
As for B1, the “ELISA with the H3cs.1 antibody of the cleavage product, against the unmodified H3 15-31 peptide” value in the data set with H3 15-31 peptide, K27me2 was “K27me2 (magenta) strongly increases the ability of Cathepsin L to cleave at H3cs.1 as compared to the matched unmodified H3 15-31 peptide”; in data set [3], “acetylation at K18 (blue) also increases this activity”. For the same protein, the “ELISA with the H3cs.1 antibody of the cleavage product” value in data set [1] is “the K23ac peptide shows very little cleavage activity at H3cs.1, both alone (green) and in combination with K18ac (black)”; in data set [4], “the K23ac peptide shows very little cleavage activity at H3cs.1, both alone (green) and in combination with K18ac (black)”. The “H3 cleavage assay, immunoblot (substrate 3 against unmodified substrate 1)” value in data set [2] is “the acetylation of lysine residues greatly reduced cleavage of H3 by rCathepsin L at both pH 7.5 and 5.5”. Besides, in the data set with rH3-HIS+K27me2, the “H3 cleavage assay, immunoblot (substrate 2 against unmodified substrate 1)” value was “K27me2 increases H3 cleavage”. For the same protein, in data set [5], the “H3 cleavage assay (immunoblot with HIS-HRP and H3.cs1 antibodies; mass spectrometry)” value was “recombinant mouse Cathepsin L was able to cleave recombinant histone H3 at both pH 5.5 and pH 7.4”. Further, the “H3 cleavage assay with pre-activated enzyme, immunoblot with HIS and H3.cs1 antibodies” value in data set [5] is “pre-activated Cathepsin L cleaves rH3-HIS robustly and produces a pattern that is similar to that observed in vivo”.

(Values after US20110312897.)
